Results: patent CN117651715A (UNIV OXFORD INNOVATION LTD, dated 2024)
Substitutions are numbered along the chain they refer to. Each block holds one binder with its values, some of them ahead of it.

Legend:
[1] = target: 人类CD1a池B蛋白 (human CD1a pool B protein, recombinant) (human) (UniProt P06126); assay: SPR (Biacore T200), antibody captured, human CD1a titrated, 1:1 model
[2] = target: T1, 人类CD1a池B蛋白 (human CD1a pool B protein, recombinant) (human, UniProt P06126 17-300, limits assumed); assay: as above
T1 construct: Recombinant protein used in ELISA, Biacore and on beads; also called 人类CD1a蛋白; CD1a包被珠 (on beads)
T1 sequence (P06126 17-300 limits assumed): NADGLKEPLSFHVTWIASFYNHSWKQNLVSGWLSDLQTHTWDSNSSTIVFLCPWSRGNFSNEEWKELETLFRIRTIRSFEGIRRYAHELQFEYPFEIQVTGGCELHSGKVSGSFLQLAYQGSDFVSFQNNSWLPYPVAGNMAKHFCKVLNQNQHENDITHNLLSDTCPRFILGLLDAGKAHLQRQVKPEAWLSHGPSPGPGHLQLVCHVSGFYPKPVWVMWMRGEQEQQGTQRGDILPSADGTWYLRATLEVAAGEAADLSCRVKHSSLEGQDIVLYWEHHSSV

[3] = target: T1, 人类CD1a池B蛋白 (human CD1a pool B protein, …); assay: SPR (Biacore T200), antibody captured on anti-species F(ab')2, human CD1a titrated 0-50 nM, 1:1 model
[4] = target: 人类CD1a池B蛋白 (human CD1a pool B protein, recombinant) (human) (UniProt P06126); assay: SPR (Biacore T200), antibody captured, human CD1a titrated, heterogeneous ligand model

B2: 77A(VR11851) (antibody, V domains shown)
VH: QSVEESGGRLVTPGTPLTLTCTVSGFSLSSYAMSWVRQAPGKGLEWIGIISSSGTTYYASWAKGRFTISKTSTTVDLKITSPTTEDTATYFCARVDYYSSGWGGLWGPGTLVTVSS
VL: AVEMTQTPASMSAAVGGTVTIKCQASEDIYSNLAWYQQKPGQPPKLLIYGASTLASGVPSRFKGSGSGTEYTLTISGVQCDDAATYYCQCTYDTSSYGNTFGGGTEMVVE
- Kd [2]: 0.24 nM
- koff [2]: 0.000113 s⁻¹
- kon [3]: 469000 M⁻¹ s⁻¹

B3: 16(VR11834) (antibody, from another filing, V domains shown)
VH: EVQLVESGGGLVKPGGSLKLSCAASGFTFSNYAMSWVRQTPEKRLEWVAAINSNGGSAYYPDTVKDRFTISRDNAKNTLYLQMSSLRSEDTALYYCARRFYYDYGWFAYWGQGTLVTVSS
VL: DIVLTQSPASLSASVGETVTITCRASENIDSYLAWYQQKQGKSPQLLVYAATLLADGVPSRFSGSGSGTQYSLKINSLQSEDVARYYCQHYYSSPWTFGGGTKLEIK
- Kd [4]: 0.392 nM
- ka 2 [4]: 514000 M⁻¹ s⁻¹
- kd 2 [4]: 0.00658 s⁻¹
- koff [4]: 0.000729 s⁻¹
- kon [4]: 1.86e+06 M⁻¹ s⁻¹

Other lines, results leading:

- Kd [1]: 0.0312 nM
- koff [1]: 1.47e-08 s⁻¹
- kon [1]: 321000 M⁻¹ s⁻¹
B1: 111(VR12113) (antibody, from another filing, V domains shown)
VH: QSVEESGGRLVTPGTPLTLTCTASGFSLSTYAMSWVRQAPGKGLEWIGIISSSGSTYYASWAKGRFTISKTSTTVDLKITSPTTEDTATYFCARETWYWLDLWGQGTLVTVSS
VL: B2 VL with M11V, K22N, T91A, T94S, N99T, T100P, M107V, E110K

- Kd [1]: 1.97 nM
- koff [1]: 0.000874 s⁻¹
- kon [1]: 443000 M⁻¹ s⁻¹
B4: 110(VR12112) (antibody, from another filing, V domains shown)
VH: QSVEESGGRLVTPGTPLTLTCTVSGFSLSSYAMIWVRQAPGKGLEWIGIINSSDNTHYATWAKGRFTISKTSTTVDLKITSPTTEDTATYFCARDPYDYGYGWYFDLWGPGTLVTVSS
VL: AQVLTQTPSPVSAAVGGTVTINCQASQSVFNNKNLAWYQQKPGQPPKLLIYKASTLASGVSSRFKGSGSGTQFALTISGVQCDDAATYYCQGEFSCSSTDCVTFGGGTEVVVK

- Kd [1]: 2.89 nM
- koff [1]: 0.0014 s⁻¹
- kon [1]: 483000 M⁻¹ s⁻¹
B5: 116(VR12117) (antibody, from another filing, V domains shown)
VH: QSVEESGGRLVTPGTPLTLTCTVSGFSLSNYAMSWVRQAPGKGLEWIGIIYTTGFTYYASWVKGRFTISKTSTTVDLKITSPTTEDTATYFCARGLATYVSPPTRLDLWGQGTLVTVSS
VL: AQVLTQTPSPVSAAVGGTVTINCQASQSIYNSKNLAWYQQKPGQPPKLLIYSASTLASGVPSRFKGSGSGTQFTLTISDLECDDAATYYCQGEFSCSSVDCATFGGGTEVVVK
